Experimental data: PMC2936275 (Biochemistry, 2010)
“And” between values parts separate entries of the source, which are not always exact repeats. Equal values may be shown once.

Target: ONE-GC fragment aa 836-1110 (UniProt P51839 836-1110)
Test: SPR

Chain of ONE-GC fragment aa 836-1110 (P51839 836-1110): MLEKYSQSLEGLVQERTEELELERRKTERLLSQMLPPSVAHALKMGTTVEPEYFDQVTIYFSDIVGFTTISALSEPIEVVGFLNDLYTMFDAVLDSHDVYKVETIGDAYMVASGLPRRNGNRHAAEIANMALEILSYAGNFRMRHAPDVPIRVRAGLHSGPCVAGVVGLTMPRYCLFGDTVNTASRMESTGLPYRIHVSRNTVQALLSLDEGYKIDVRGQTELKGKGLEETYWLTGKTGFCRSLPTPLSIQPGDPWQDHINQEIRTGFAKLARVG

EC50: 500 nM
Kd: 650 nM and 670 nM
B1: GCAP1 (guanylate cyclase activating protein 1), purified recombinant (natural protein, UniProt P46065 1-205, looked up)
chain: MGNIMDGKSVEELSSTECHQWYKKFMTECPSGQLTLYEFRQFFGLKNLSPWASQYVEQMFETFDFNKDGYIDFMEYVAALSLVLKGKVEQKLRWYFKLYDVDGNGCIDRDELLTIIRAIRAINPCSDSTMTAEEFTDTVFSKIDVNGDGELSLEEFMEGVQKDQMLLDTLTRSLDLTRIVRRLQNGEQDEEGASGRETEAAEADG
